In assay [1] the target is human ROR1 (full-length, on the cell surface) (human) (UniProt Q01973). The experiment in a line: cell-based or functional assay.
Assay [2] has the same target. The experiment in a line: flow cytometry, A549 cells (Table 5-2). (Flow cytometry measures light scatter and fluorescence of single cells or particles in a stream.)
Assay [3] has the same target. The experiment in a line: flow cytometry, A549 cells (Table 5-3).
The target is the same in assay [4]. The experiment in a line: flow cytometry, A549 cells (Table 5-1A).
Assay [5] has the same target. The experiment in a line: flow cytometry, A549 cells (Table 5-1B).
Assay [6] shares this target. The experiment in a line: flow cytometry, HT-29 cells (Table 5-2).
The target is the same in assay [7]. The experiment in a line: flow cytometry, HT-29 cells (Table 5-3).
Assay [8] shares this target. The experiment in a line: flow cytometry, HT-29 cells (Table 5-1A).
Assay [9] has the same target. The experiment in a line: flow cytometry, HT-29 cells (Table 5-1B).
Assay [10] has the same target. The experiment in a line: flow cytometry, Jeko-1 cells (Table 5-2).
For assay [11] the target is unchanged. The experiment in a line: flow cytometry, Jeko-1 cells (Table 5-3).
The target is the same in assay [12]. The experiment in a line: flow cytometry, Jeko-1 cells (Table 5-1A).
Assay [13] has the same target. The experiment in a line: flow cytometry, Jeko-1 cells (Table 5-1B).
The target is the same in assay [14]. The experiment in a line: flow cytometry, Ba/F3-ROR1 cells (Table 5-2).
For assay [15] the target is unchanged. The experiment in a line: flow cytometry, Ba/F3-ROR1 cells (Table 5-3).
For assay [16] the target is unchanged. The experiment in a line: flow cytometry, Ba/F3-ROR1 cells (Table 5-1A).
Assay [17] shares this target. The experiment in a line: flow cytometry, Ba/F3-ROR1 cells (Table 5-1B).
For assay [18] the target is unchanged. The experiment in a line: flow cytometry, A549 cells; average of two measurements.
Assay [19] has the same target. The experiment in a line: flow cytometry, HT-29 cells; average of two measurements.
For assay [20] the target is unchanged. The experiment in a line: flow cytometry, Jeko-1 cells; average of two measurements.
Assay [21] has the same target. The experiment in a line: flow cytometry, Ba/F3-ROR1 cells; average of two measurements.
The target is the same in assay [22]. The experiment in a line: flow cytometry on A549 cells, MFI against antibody concentration.
For assay [23] the target is unchanged. The experiment in a line: flow cytometry on Ba/F3-ROR1 cells, MFI against antibody concentration.
Assay [24] shares this target. The assay is described as above. The source holds these as a separate data set.
Assay [25] has as its target human ROR1 ECD protein (human) (UniProt Q01973). The experiment in a line: BLI (Octet), antibody on AHC sensor, ROR1 ECD in solution; average of two measurements. Background: In BLI a coated tip is dipped into the sample, and binding shifts an interference pattern.
For assay [26] the target is unchanged. The experiment in a line: BLI (Octet), antibody on AHC sensor, ROR1 ECD in solution; average of three determinations.
Assay [27] has as its target T1, human ROR1 (full-length, on the cell surface) (human, UniProt Q01973 30-937). The experiment in a line: cell-based or functional assay.
The target of assay [28] is T2, human ROR2 extracellular domain (ECD) protein (human, UniProt Q01974 34-403).
T2 construct: extracellular domain; Bought protein; also called human ROR2 ECD protein; Sino Biologicals 16133-H08H
The experiment in a line: ELISA on coated human ROR2 ECD protein (1 ug/mL), OD at 450 nm. Here is the method:
It was confirmed by ELISA using extracellular domain (ECD) protein of human ROR2 that the binding specificity of the candidate antibodies to human ROR1 was higher than that of human ROR2. The specific method was as follows: 1 μg/mL human ROR2 extracellular domain (ECD) protein (Sino Biologicals, Cat. No.: 16133-H08H) was added in a 96-well ELISA plate (Thermo Fisher, Cat. No.: 5129) at 100 μL/well, for coating overnight at 4° C. 200 μL of washing buffer (1×TBS containing 0.05% Tween-20) was used to wash 3 times, different concentrations of eight purified mouse-anti-human ROR1 candidate antibodies and UC961 were added at 100 μL, incubated at 37° C. for 1 hour, and mouse-anti-human ROR2 antibody (R&D systems, Cat. No.: MAB2064) was used as a positive control. Washing was performed 3 times with 200 μL of washing buffer, 100 μL of anti-human IgG (Rockland Inc, Cat. No. 609-1304) or anti-mouse IgG secondary antibody (Rockland Inc, Cat. No. 610-1304) diluted at a ratio of 1:10000 were added to each well, incubated at 37° C. for 1 hour. Washing was performed 3 times with 200 μL of washing buffer, 100 μL of TMB (Thermo Fisher, Cat. No.: TMBW-1000-01) was added for color development in the dark for 10 minutes, then 100 μL of stop solution (Thermo Fisher, Cat. No.: 13361-100-10) was added to stop the color development, and reading was carried out by microplate reader at 450 nm.
(An ELISA detects its analyte on a solid surface through an enzyme-linked reagent.)

Assay [29] addresses T1, human ROR1 (full-length, on the cell …). The experiment in a line: flow cytometry on A549 cells, MFI against antibody concentration. The source says:
(§1) The affinity of the candidate antibodies to ROR1 on the surface of human cells was detected by flow cytometry. In addition to the Ba/F3-ROR1 overexpression cells, human mantle cell lymphoma cell line Jeko-1 (ATCC, Cat. No.: CRL-3006), human colon cancer cell line HT-29 (ATCC, Cat. No.: HTB-38), human lung cancer cell line A549 (ATCC, Cat. No.: CCL-185) were also used for the binding assay. The anti-human ROR1 antibody UC961 (for sequence, see WO2018237335A1) with mouse or human IgG1 Fc was used as a positive control, and the anti-2,4,6-trinitrophenol antibody (ATCC) with the corresponding mouse or human IgG1 Fc was used as a negative control. Mouse IgG isotype control (Thermo Fisher, Cat. No.: 31903) was also used as a negative control.

The target is the same in assay [30]. The experiment in a line: flow cytometry on Jeko-1 cells, MFI against antibody concentration.
Excerpt: as §1

Assay [31] shares this target. The experiment in a line: flow cytometry on Ba/F3-ROR1 cells, MFI against antibody concentration.
Excerpt: as §1

For assay [32] the target is unchanged. The experiment in a line: flow cytometry on HT29 cells, MFI against antibody concentration.
Excerpt: as §1

human ROR1 (full-length, on the cell surface) (human), sequence (Q01973 30-937): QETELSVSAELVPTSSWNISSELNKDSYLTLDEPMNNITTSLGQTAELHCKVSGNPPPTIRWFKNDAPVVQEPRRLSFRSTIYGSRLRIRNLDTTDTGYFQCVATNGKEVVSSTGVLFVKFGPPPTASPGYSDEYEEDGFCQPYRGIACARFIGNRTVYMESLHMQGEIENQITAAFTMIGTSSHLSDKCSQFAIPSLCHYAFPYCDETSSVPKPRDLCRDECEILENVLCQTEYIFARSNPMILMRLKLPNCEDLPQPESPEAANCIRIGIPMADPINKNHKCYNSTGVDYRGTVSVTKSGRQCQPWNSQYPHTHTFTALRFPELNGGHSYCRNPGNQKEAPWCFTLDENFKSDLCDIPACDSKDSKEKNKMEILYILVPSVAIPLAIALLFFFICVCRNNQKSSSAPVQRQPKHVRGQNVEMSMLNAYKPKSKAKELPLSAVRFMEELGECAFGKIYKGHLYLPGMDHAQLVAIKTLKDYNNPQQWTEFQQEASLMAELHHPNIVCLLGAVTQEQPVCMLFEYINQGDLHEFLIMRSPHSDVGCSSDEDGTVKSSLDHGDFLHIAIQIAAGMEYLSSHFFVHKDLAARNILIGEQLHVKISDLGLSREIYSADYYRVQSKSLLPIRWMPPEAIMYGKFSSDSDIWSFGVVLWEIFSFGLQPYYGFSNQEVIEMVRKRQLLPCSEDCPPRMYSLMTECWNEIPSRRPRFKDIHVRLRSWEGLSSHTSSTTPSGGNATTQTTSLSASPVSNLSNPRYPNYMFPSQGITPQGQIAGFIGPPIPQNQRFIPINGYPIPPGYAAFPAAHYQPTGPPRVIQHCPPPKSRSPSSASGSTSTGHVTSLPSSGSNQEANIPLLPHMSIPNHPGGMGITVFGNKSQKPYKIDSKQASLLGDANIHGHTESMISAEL
T1 sequence (Q01973 30-937): as above
human ROR1 ECD protein (human), sequence (Q01973 30-406): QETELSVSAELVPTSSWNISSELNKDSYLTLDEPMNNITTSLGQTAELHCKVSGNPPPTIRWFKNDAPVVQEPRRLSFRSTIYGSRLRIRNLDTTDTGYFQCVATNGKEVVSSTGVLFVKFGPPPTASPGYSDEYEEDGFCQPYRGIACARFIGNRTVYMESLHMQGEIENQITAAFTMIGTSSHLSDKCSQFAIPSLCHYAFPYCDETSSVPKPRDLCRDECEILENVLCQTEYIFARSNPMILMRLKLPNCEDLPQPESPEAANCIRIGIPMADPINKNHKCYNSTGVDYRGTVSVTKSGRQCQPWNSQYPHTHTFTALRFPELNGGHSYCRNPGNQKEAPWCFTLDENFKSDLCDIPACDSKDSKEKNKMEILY
T2 sequence (Q01974 34-403): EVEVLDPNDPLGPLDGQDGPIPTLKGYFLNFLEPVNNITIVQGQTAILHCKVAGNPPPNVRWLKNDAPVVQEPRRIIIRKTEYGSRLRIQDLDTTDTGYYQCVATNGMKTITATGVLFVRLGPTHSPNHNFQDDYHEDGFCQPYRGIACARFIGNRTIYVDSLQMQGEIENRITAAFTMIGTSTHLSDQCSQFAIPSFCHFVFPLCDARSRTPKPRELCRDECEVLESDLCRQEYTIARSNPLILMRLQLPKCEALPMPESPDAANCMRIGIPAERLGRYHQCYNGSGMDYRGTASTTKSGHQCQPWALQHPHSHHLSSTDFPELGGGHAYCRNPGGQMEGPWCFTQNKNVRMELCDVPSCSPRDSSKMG

B1: anti-human ROR1 antibody UC961 (antibody, from another filing, V domains shown)
VH: QVQLQESGPGLVKPSQTLSLTCTVSGYAFTAYNIHWVRQAPGQGLEWMGSFDPYDGGSSYNQKFKDRLTISKDTSKNQVVLTMTNMDPVDTATYYCARGWYYFDYWGHGTLVTVSS
VL: DIVMTQTPLSLPVTPGEPASISCRASKSISKYLAWYQQKPGQAPRLLIYSGSTLQSGIPPRFSGSGYGTDFTLTINNIESEDAAYYFCQQHDESPYTFGEGTKVEIK
For orientation: EC50 means the midpoint of the concentration-response curve. As a reminder, the EC50 (read off the curve) is the concentration giving half of the maximal effect. High values mean a less potent agent, low ones a more potent agent. Usually Kd stands for the equilibrium constant for the complex coming apart. The koff is the rate constant with which the complex falls apart. Read a high koff as a short-lived complex. What is called kon is the second-order rate constant of association. Molecule B1 yielded an EC50 of ADCC killing of Ba/F3-ROR1 cells by NK92MI-mCD16a-hFceRI cells in assay [1] of 0.33 nM. Also, the EC50 is 0.46 nM in assay [2]; 0.21 nM in assay [3]; 0.41 nM in assay [4]; 0.16 nM in [5]; 0.21 nM in assay [6]; 0.37 nM in assay [7]. For the same molecule, the 50% effective concentration (EC50) worked out at 0.12 nM in assay [8]; 0.2 nM in assay [9]; 0.14 nM in assay [10]; 0.06 nM in assay [11]; 0.22 nM in assay [12]; 0.36 nM in [13]. The EC50 worked out at 0.31 nM in [14]; 1.07 nM in assay [15]; 0.62 nM in [16]; 0.3 nM in assay [17]; 0.277 nM in [18]; 0.267 nM in [19]. Besides, the figures for the EC50 in assay [20] and in [21] were 0.447 nM and 0.44 nM, respectively. The half-maximal effective concentration (EC50 (read off the curve)) in assay [22] stood at 10 ng/mL; in assay [23], 50 ng/mL; in [24] it was 70 ng/mL. In addition, the Kd in [25] was 15.8 nM; in [26], 8.73 nM. The koff in assay [25] was 0.0137 s⁻¹; in assay [26], 0.0112 s⁻¹. Further, the association rate constant (kon) is 981000 M⁻¹ s⁻¹ in [25] and 1.26e+06 M⁻¹ s⁻¹ in assay [26].

B2: Murine antibody 3D8.2.3 (antibody, V domains shown)
VH: EVKLVESGGGLVKPGGSLKLSCAASGFTFSSYAMSWVRQTPEKRLEWVASINSGGSTYYPDSVKGRFTISRDNARNILYLQMSSLRSEDTAMYYCARVNYYGYGDYAMDYWGQGTSVTVSS
VL: DIKMTQSPSSMYASLGERVTITCKASQDINSYLSWFQQKPGKSPKTLIYRANRLVDGVPSRFSGSGSGQDYSLTISSLEYEDMGIYYCLQYDEFPYTFGGGTNLEIK
notes: Hybridoma antibody
For B2, in assay [27], the “activity of inducing internalization on Jeko-1 cells (Mab-ZAP, by IC50), fold over UC961” value is 3.8 fold. In assay [28], the binding result was “no binding (tested: about 5000 ng/ml)”. Besides, the concentration for a half-maximal effect (EC50 (read off the curve)) in [29] is ~30 ng/mL; in assay [30] it was ~20 ng/mL; in [31] it was ~60 ng/mL.

B3: Murine antibody 38F8.1.1 (antibody, V domains shown)
VH: EVKLVESGGDLVKPGGSLKLSCTASGFTFSNYAMSWVRQTPEKRLEWVASISSGGPTYYPDSVKGRFTVSRDNARNILYLQMSSLRSEDTAMYYCARGYRYDVNWYFDVWGAGTSVTVSS
VL: DIKMTQSPSSMYASLGERVTITCKASQDINSYLTWFQQKPGKSPKTLIHRANRLVDGVPSRFSGSGSGQDYSLTISSLEYEDMGIYYCLQYDEFPYTFGGGTKLEIK
notes: Hybridoma antibody
For B3, the “activity of inducing internalization on Jeko-1 cells (Mab-ZAP, by IC50), fold over UC961” value in assay [27] was 5.3 fold. Besides, the binding result in [28] is given as “no binding (tested: about 5000 ng/ml)”. Besides, the entries for the concentration giving a half-maximal response (EC50 (read off the curve)) in assay [32], in assay [30] and in [31] were ~40 ng/mL, ~30 ng/mL and ~60 ng/mL, respectively.

Source of the values: patent US20240018237A1 (SICHUAN KELUN BIOTECH BIOPHARMACEUTICAL, published 2024).
